From patent US7432093B2, “Soluble, functional apoptotic protease-activating factor 1 fragments” (The Trustees of Princeton University, priority 2004, dated 2008)
Entries after “also recorded” stand apart in the source; their conditions may differ.

T1: Apaf-1 (Homo sapiens, UniProt O14727)
T1 sequence (O14727 1-1248): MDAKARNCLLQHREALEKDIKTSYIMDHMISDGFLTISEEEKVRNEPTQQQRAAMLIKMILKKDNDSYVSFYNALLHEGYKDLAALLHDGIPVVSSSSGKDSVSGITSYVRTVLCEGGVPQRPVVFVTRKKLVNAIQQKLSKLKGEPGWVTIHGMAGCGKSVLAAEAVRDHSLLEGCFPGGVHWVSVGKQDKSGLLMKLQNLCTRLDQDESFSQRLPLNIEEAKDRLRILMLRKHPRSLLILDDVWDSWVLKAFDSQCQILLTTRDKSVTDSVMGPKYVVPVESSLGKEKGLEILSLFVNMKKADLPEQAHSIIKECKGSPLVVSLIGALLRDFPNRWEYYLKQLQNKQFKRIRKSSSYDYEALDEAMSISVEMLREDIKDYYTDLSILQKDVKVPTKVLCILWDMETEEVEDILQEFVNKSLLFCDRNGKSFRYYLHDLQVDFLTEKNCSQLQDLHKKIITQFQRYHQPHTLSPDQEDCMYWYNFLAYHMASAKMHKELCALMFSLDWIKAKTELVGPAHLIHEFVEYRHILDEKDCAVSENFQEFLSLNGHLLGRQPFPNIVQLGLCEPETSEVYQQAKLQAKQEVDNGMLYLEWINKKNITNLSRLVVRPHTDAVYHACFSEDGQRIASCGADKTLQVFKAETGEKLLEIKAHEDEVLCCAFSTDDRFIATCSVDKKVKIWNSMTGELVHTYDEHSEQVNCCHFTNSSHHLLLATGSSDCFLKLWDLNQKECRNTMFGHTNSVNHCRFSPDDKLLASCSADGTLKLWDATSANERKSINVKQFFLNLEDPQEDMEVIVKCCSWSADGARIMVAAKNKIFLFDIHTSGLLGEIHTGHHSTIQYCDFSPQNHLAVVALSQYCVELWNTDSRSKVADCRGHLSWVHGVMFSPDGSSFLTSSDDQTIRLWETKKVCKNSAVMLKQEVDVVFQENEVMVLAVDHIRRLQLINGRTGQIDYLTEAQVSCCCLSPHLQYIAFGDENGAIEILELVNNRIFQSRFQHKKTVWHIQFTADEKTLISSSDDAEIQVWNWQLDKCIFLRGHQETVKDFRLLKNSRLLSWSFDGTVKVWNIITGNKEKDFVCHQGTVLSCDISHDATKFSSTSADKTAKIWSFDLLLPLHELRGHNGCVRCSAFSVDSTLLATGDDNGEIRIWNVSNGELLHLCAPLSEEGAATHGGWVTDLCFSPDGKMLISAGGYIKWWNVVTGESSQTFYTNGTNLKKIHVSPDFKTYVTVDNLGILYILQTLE

T2: caspase-9 activation by the soluble Apaf-1 fragment (Homo sapiens, UniProt O14727)
T2 construct: Leu-Glu-His6 (C); made in house; host or cells: Escherichia coli BL21(DE3), pET29 (both proteins)
T2 sequence (O14727 1-591): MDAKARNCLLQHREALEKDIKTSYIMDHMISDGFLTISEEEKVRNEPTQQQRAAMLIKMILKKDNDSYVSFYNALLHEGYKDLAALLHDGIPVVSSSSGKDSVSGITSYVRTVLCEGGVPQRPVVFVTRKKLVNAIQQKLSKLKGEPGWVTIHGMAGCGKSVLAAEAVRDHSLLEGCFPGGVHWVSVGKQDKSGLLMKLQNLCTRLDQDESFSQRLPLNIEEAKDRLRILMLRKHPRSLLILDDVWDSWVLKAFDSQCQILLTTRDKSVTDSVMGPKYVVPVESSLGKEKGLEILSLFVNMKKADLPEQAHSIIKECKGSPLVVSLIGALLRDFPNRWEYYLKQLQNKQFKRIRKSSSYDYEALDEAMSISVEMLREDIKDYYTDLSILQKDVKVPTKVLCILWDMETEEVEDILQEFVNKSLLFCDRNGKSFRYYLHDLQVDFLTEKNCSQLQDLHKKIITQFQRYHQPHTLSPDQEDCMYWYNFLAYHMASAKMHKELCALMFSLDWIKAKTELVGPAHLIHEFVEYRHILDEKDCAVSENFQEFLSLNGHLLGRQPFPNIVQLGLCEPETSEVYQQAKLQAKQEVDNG
T2 sequence (P55211 1-315 partner limits assumed): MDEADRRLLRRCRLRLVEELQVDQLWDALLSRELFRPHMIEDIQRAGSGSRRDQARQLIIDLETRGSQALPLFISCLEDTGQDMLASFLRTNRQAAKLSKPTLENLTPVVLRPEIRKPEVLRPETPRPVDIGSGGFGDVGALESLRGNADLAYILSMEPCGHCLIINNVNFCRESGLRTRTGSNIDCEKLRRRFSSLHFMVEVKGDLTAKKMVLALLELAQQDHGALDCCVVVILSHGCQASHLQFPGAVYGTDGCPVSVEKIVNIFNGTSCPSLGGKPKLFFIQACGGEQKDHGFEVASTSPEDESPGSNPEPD
T2 sequence (P55211 331-416 partner limits assumed): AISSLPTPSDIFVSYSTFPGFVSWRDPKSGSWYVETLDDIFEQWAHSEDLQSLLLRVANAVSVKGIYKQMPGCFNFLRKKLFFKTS

T3: soluble Apaf-1 fragment (residues 1-591) (Homo sapiens, UniProt O14727)
T3 construct: Leu-Glu-His6 (C); made in house; host or cells: Escherichia coli BL21(DE3), pET29
T3 sequence (O14727 1-591): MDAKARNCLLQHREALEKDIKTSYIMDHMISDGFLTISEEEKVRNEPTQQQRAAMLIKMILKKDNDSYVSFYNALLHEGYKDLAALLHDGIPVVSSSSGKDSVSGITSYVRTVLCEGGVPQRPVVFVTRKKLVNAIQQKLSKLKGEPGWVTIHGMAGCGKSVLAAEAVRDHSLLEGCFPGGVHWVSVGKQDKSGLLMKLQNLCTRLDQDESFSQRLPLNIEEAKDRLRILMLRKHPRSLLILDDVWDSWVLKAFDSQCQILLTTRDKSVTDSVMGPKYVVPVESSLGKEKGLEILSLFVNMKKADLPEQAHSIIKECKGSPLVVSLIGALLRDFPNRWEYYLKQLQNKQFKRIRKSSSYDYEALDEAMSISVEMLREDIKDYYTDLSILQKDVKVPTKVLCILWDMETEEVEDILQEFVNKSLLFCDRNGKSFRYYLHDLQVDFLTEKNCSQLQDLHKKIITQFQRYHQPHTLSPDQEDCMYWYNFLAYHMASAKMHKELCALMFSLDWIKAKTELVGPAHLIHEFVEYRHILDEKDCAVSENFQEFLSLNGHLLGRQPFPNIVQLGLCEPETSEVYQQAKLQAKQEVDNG


Key:
Apaf-1 = molecular target: T1, Apaf-1; details: observed by others, explained by the structure; cited from earlier work
[1] = molecular target: T2, caspase-9 activation by the soluble Apaf-1 fragment; assay: Caspase-9 activation assay (fluorogenic, LEHD-AMC); type: biochemical; details: absence of ATP and of the apoptosome
Experimental: A fluorogenic assay was developed to monitor caspase-9 activation by the soluble Apaf-1 fragment. […] Then, caspase-9 and Apaf-1 were added to a final volume of 200 microliter and final concentrations of 0.2 micromolar and 2 micromolar, respectively. After incubation for 5 minutes at room temperature, the caspase-9 substrate LEHD-AMC (a tetrapeptide coupled to 7-amino […]) was added to the reaction at a final concentration of 200 micromolar. The conversion of the fluorogenic substrate was then measured using a Hitachi F2500 fluorescence spectrophotometer with an excitation wavelength of 380 nanometers and a fluorescence detection wavelength of 440 nanometers.

[2] = molecular target: T3, soluble Apaf-1 fragment (residues 1-591); assay: ATPase assay (TLC, conversion of (alpha-32P)ATP to ADP); type: biochemical
Experimental: ATPase activity was determined using a thin layer chromatography (TLC) assay designed to quantitatively measure the conversion of (alpha-^32P)ATP to ADP. Reactions were initiated by mixing the soluble Apaf-1 fragment at a final concentration of 2 micromolar with a solution containing 20 millimolar HEPES, pH 7.5, 10 millimolar DTT, 10 micromolar magnesium chloride, 0.1 micromolar (alpha-^32P)ATP, and 8 micromolar ATP. The reaction was incubated at room temperature for the indicated duration and then quenched by addition of an equal volume of developing solvent (1 molar formic acid, 0.5 molar LiCl). Samples were evaluated based on the differential mobility of ATP versus ADP on TLC using polyethyleneimine-cellulose F plates.

[3] = type: physicochemical, E. coli
Experimental: Preferably, solubility of the fragment is assessed in a lysate of a bacterial culture used to produce the fragment at a concentration of at least 1 milligram per liter of bacterial culture.
All constructs for protein expression were generated using a standard PCR-based cloning strategy, and the identity of individual clones was verified by double-stranded plasmid sequencing. A soluble Apaf-1 fragment (residues 1-591, sequence (SEQ ID NO: 1) shown in FIG. 1) was over-expressed in Escherichia coli strain BL21(DE3) using plasmid vector pET29 having the nucleotide sequence described by Jiang et al. (2000, J. Biol. Chem. 275:31199-31203) operatively ligated therein. The coding sequence included an additional sequence encoding eight amino acid residues at its carboxy-terminal end (i.e., linked to residue 591 in the translated protein). These residues (Leu-Glu-His6) included a nickel-binding hexa-histidine sequence used for metal affinity chromatographic purification of the expressed protein. Soluble Apaf-1 was purified from the cell lysate using a Ni-NTA (nitrilotriacetic acid-ligated nickel; Qiagen) chromatography column. Dithiothreitol (DTT) and ethylenediamine tetraacetic acid (EDTA) were added to the eluted fraction in final concentrations of 5 millimolar each. After incubation for 30 minutes on ice, the protein solution was applied to an anion-exchange column (Source-15Q, Pharmacia) for further purification.

Molecule | activation of Apaf-1 (Apaf-1) | catalytic activity of caspase-9 in the presence of Apaf-1 [1] | ATPase activity (appearance of ADP on TLC) ([2]; 2 micromolar fragment, magnesium present, room temperature, FIG. 6A) | ATPase activity on incubation with EDTA ([2]; EDTA added (magnesium removed), FIG. 6A lane 3) | Solubility [3] | solubility and solution behavior (in words) [3]
Nc1nc2c(ncn2[C@@H]2O[C@H](COP(=O)(O)OP(=O)(O)OP(=O)(O)O)[C@@H](O)[C@H]2O)c(=O)[nH]1 [GTP] | does not activate Apaf-1 |  |  |  |  | 
1-591: soluble human Apaf-1 fragment, residues 1-591 (SEQ ID NO: 1), expressed in E. coli BL21(DE3) with C-terminal Leu-Glu-His6 (protein, listed as Homo sapiens, C-terminal Leu-Glu-His6 tag) MDAKARNCLLQHREALEKDIKTSYIMDHMISDGFLTISEEEKVRNEPTQQQRAAMLIKMILKKDNDSYVSFYNALLHEGYKDLAALLHDGIPVVSSSSGKDSVSGITSYVRTVLCEGGVPQRPVVFVTRKKLVNAIQQKLSKLKGEPGWVTIHGMAGCGKSVLAAEAVRDHSLLEGCFPGGVHWVSVGKQDKSGLLMKLQNLCTRLDQDESFSQRLPLNIEEAKDRLRILMLRKHPRSLLILDDVWDSWVLKAFDSQCQILLTTRDKSVTDSVMGPKYVVPVESSLGKEKGLEILSLFVNMKKADLPEQAHSIIKECKGSPLVVSLIGALLRDFPNRWEYYLKQLQNKQFKRIRKSSSYDYEALDEAMSISVEMLREDIKDYYTDLSILQKDVKVPTKVLCILWDMETEEVEDILQEFVNKSLLFCDRNGKSFRYYLHDLQVDFLTEKNCSQLQDLHKKIITQFQRYHQPHTLSPDQEDCMYWYNFLAYHMASAKMHKELCALMFSLDWIKAKTELVGPAHLIHEFVEYRHILDEKDCAVSENFQEFLSLNGHLLGRQPFPNIVQLGLCEPETSEVYQQAKLQAKQEVDNG |  | significantly and reproducibly elevated; also recorded: significantly improved the caspase catalytic activity | exhibited ATPase activity | abrogation of the observed ATPase activity | ++++ | good solubility and solution behavior
